# Reference: PMC9425028
# B1: wild-type recombinant mouse MASP-3 fused with PA-tag (WT rmMASP-3-PA) [mouse] / mouse collectin kidney 1 (CL-K1) [mouse (endogenous in serum of C57BL/6J mice)] (parent)
# chain 1: HTVELNEMFGQIQSPGYPDSYPSDSEVTWNITVPEGFRIKLYFMHFNLESSYLCEYDYVKVETEDQVLATFCGRETTDTEQTPGQEVVLSPGTFMSVTFRSDFSNEERFTGFDAHYMAVDVDECKEREDEELSCDHYCHNYIGGYYCSCRFGYILHTDNRTCRVECSGNLFTQRTGTITSPDYPNPYPKSSECSYTIDLEEGFMVSLQFEDIFDIEDHPEVPCPYDYIKIKAGSKVWGPFCGEKSPEPISTQTHSVQILFRSDNSGENRGWRLSYRAAGNECPKLQPPVYGKIEPSQAVYSFKDQVLVSCDTGYKVLKDNEVMDTFQIECLKDGAWSNKIPTCKIVDCGAPAGLKHGLVTFSTRNNLTTYKSEIRYSCQQPYYKMLHNTTGVYTCSAHGTWTNEVLKRSLPTCLPVCGQPSRALPNLVKRIIGGRNAELGLFPWQALIVVEDTSRVPNDKWFGSGALLSESWILTAAHVLRSQRRDNTVIPVSKEHVTVYLGLHDVRDKSGAVNSSAARVILHPDFNIQNYNHDIALVQLQKPVPLGAHVMPICLPRPEPEGPAPHMLGLVAGWGISNPNVTVDEIILSGTRTLSDVLQYVKLPVVSHAECKASYESRSGNYSVTENMFCAGYYEGGKDTCLGDSGGAFVIFDEMSQHWVAQGLVSWGGPEECGSKQVYGVYTKVSNYVDWLWEEMNSPRAVRDLQVER
# chain 2: QQTTEDACSVQILVPGLKGDAGEKGDKGAPGRPGRVGPTGEKGDMGDKGQKGTVGRHGKIGPIGAKGEKGDSGDIGPPGPSGEPGIPCECSQLRKAIGEMDNQVTQLTTELKFIKNAVAGLRETESKIYLLVKEEKRYADAQLSCQARGGTLSMPKDEAANGLMASYLAQAGLARVFIGINDLEKEGAFVYSDRSPMQTFNKWRSGEPNNAYDEEDCVEMVASGGWNDVACHITMYFMCEFDKENL
# B2: wild-type recombinant mouse MASP-3 fused with PA-tag (WT rmMASP-3-PA) [mouse] / mouse ficolin-A [mouse (endogenous in serum of C57BL/6J mice)] (parent)
# chain 1: B1 chain 1
# chain 2: SQALGQERGACPDVKVVGLGAQDKVVVIQSCPGFPGPPGPKGEPGSPAGRGERGFQGSPGKMGPAGSKGEPGTMGPPGVKGEKGDTGAAPSLGEKELGDTLCQRGPRSCKDLLTRGIFLTGWYTIHLPDCRPLTVLCDMDVDGGGWTVFQRRVDGSIDFFRDWDSYKRGFGNLGTEFWLGNDYLHLLTANGNQELRVDLQDFQGKGSYAKYSSFQVSEEQEKYKLTLGQFLEGTAGDSLTKHNNMSFTTHDQDNDANSMNCAALFHGAWWYHNCHQSNLNGRYLSGSHESYADGINWGTGQGHHYSYKVAEMKIRAS
# Variants of: B1
# Experiment: immunoprecipitation with anti-PA tag antibody beads from mouse serum, Western blot band intensity
# Details: with mouse collectin kidney 1 (CL-K1) [mouse (endogenous in serum of C57BL/6J mice)]; TBS containing 7 mM MgCl2 and 5 mM CaCl2 (TBS/Mg/Ca); parent: 1; read off a plot
row,ratio to parent,Variant
1,0.03,chain 1 D102A
2,0.04,chain 1 H218A
3,0.07,chain 1 Y225A
4,0.02,chain 1 E49A

# Variants of: B2
# Experiment: as above
# Details: with mouse ficolin-A [mouse (endogenous in serum of C57BL/6J mice)]; TBS containing 7 mM MgCl2 and 5 mM CaCl2 (TBS/Mg/Ca); parent: 1; read off a plot
row,ratio to parent,Variant
1,0.09,chain 1 E49A
2,0.04,chain 1 H218A
3,0.04,chain 1 D102A
4,0.06,chain 1 Y225A
